Data from US20150174202A1, “Methods and Compositions for Modulating Beta Cell Proliferation” (The Board of Trustees of the Leland Stanford Junior …, priority 2011, published 2015).

Target: T1, Pdgfr-α (Mus musculus, UniProt P26618)
T1 construct: endogenous in cells; host or cells: primary pancreatic islets from C57BL/6 mice (3-week-old wild-type islets), cultured ex vivo
Experiment: Phosphorylation of Pdgfr-α in cultured mouse islets (western blot)
Type: cell-based
Settings: 3-week-old mouse islets exposed to PDGF-AA
Protocol: Mouse pancreatic islets were purified as described in Chen et al. (2009) Genes Dev. 23, 975-985 and used immediately for assays described in the text. To study Ezh2 induction in cultured islets exposed to mitogens, freshly isolated islets from 2-3-week old, and 7-12-month old C57BL/6 mice were recovered and equilibrated overnight at 37° C., 5% CO2 in RPMI-1640 medium supplemented with 0.5% fetal bovine serum (FBS), 0.2% bovine albumin (BSA) and 2% penicillin/streptomycin. Afterwards, islets were distributed into microplates or dishes, and treated with recombinant human PDGF-AA, prolactin or insulin (Sigma), with or without addition of pharmacological inhibitors, including Sunitinib (Selleck), Vargatef (Selleck), U0126 (Sigma), LY294002 (Sigma) or U-73122 (Sigma) at the indicated concentrations. Two days later, islets were harvested for RNA or protein extraction for real-time RTPCR or western blot analyses. To detect phosphorylation of Pdgfr-α by western blot, islets were exposed to PDGF-AA (with or without indicated pharmacological inhibitors) for 90 min before islet harvesting and protein extraction. […] Immunostaining of BrdU and insulin was performed on processed islets, and β-cell proliferation rate was determined by quantifying percentage of insulin+ cells with BrdU+. […]

T1 sequence (P26618 25-1089): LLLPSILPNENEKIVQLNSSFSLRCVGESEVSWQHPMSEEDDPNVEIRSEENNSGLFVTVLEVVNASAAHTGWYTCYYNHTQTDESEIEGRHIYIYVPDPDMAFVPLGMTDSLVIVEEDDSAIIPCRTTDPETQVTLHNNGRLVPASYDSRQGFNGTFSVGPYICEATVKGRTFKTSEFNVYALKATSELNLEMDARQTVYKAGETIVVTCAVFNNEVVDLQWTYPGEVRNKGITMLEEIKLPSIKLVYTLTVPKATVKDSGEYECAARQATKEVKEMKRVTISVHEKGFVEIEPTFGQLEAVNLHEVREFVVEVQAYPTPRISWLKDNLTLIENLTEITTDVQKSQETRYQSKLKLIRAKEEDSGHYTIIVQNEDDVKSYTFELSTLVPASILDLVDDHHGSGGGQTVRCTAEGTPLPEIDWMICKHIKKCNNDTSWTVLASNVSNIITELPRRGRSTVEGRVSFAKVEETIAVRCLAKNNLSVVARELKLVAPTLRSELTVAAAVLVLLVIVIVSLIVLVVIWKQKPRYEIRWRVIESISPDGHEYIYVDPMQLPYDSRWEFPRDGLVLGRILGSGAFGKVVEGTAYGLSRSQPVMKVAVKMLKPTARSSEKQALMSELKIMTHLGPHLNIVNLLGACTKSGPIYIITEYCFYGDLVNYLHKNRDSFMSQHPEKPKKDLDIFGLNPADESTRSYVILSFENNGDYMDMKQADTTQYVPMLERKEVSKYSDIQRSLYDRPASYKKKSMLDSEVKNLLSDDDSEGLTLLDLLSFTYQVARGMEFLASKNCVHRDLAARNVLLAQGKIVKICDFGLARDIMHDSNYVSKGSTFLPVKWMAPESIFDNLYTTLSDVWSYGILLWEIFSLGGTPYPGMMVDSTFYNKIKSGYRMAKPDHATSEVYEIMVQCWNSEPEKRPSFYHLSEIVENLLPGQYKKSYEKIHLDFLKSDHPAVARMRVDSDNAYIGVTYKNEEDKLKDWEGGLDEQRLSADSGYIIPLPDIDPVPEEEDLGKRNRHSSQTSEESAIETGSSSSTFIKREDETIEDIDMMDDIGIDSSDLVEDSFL

## PDGF-AA: recombinant human PDGF-AA, a homodimer of PDGF alpha polypeptides
  phospho-Pdgfr-α levels: increased
